Assay results: patent US20250258178A1 (SHIONOGI, published 2025)
Each block holds one binder with its values, some of them ahead of it.

What was measured:
[1] = biological target: T1, human histidine-rich glycoprotein (HRG), purified from human plasma (human, UniProt P04196 19-525); assay: sandwich ELISA, HRG captured by solid phase 94-7A-3C-3D
T1 construct: also called human purified HRG; human purified HRG protein
T1 sequence: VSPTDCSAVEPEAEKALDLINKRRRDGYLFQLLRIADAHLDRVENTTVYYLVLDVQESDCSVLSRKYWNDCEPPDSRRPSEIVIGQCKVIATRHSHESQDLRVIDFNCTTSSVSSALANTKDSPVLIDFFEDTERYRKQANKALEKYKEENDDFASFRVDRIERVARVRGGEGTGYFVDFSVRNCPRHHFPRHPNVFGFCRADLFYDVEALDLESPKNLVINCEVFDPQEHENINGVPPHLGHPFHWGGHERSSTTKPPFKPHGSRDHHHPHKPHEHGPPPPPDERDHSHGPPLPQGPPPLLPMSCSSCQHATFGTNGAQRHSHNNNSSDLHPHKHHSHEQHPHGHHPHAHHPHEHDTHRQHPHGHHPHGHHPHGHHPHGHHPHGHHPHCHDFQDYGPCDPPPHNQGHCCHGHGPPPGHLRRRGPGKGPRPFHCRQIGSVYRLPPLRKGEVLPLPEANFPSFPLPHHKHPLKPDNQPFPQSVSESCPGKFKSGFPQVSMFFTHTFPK
Method: (§1) The capture antibody solution was dispensed at 25 μL per well into 384-well Maxisorp plates (NUNC), and the plates were incubated at room temperature for 3 hours. The plates were washed twice with 120 μL of washing solution per well (0.05% Tween 20-containing PBS). A blocking solution (1% BSA-containing PBS) was dispensed at 30 μL per well, and the plates were incubated at room temperature for 3 hours. The blocking solution was removed followed by dispensing the standard substance for evaluation at 20 μL per well (n=2), and the plates were incubated at room temperature for 3 hours. After washing the plates four times with the washing solution as described above, the solution of each detector antibody was dispensed at 10 μL per well, followed by dispensing a horseradish peroxidase-streptavidin solution (0.05 μg/mL) at 10 μL per well, and the plates were incubated at room temperature for 1 hour. After washing the plates four times with the washing solution as described above, a chromogenic substrate solution (TMB (3,3′,5,5′-tetramethylbenzidine)) was dispensed at 20 μL per well followed by incubating the plates at room temperature for 10 minutes, then a reaction stop solution 0.5 M H₂SO₄ was added at 20 μL/well, and the absorbance at 450 nm was measured.
(§2) The results regarding the evaluation of combinations chosen from 21 types of anti-HRG monoclonal antibodies are shown in Table 1. In Table 1, the absorbance at a wavelength of 450 nm of each combination was determined as follows: less than 1.0 OD: −, 1.0 OD or more and less than 2.0 OD: +, 2.0 OD or more and less than 3.0 OD: ++, and 3.0 OD or more: +++. The combinations of antibodies which could construct a sandwich ELISA system having enough level of absorbance change were 86 sets evaluated as ++ or +++ in Table 1.

[2] = biological target: T1, human histidine-rich glycoprotein …; assay: sandwich ELISA, HRG captured by solid phase 13-2G
Method: as §1, §2

[3] = biological target: T1, human histidine-rich glycoprotein …; assay: sandwich ELISA, HRG captured by solid phase 40-10G
Method: as §1, §2

[4] = biological target: T1, human histidine-rich glycoprotein …; assay: sandwich ELISA, HRG captured by solid phase 93-4C
Method: as §1, §2

[5] = biological target: T1, human histidine-rich glycoprotein …; assay: sandwich ELISA, HRG captured by solid phase 31-1H
Method: as §1, §2

[6] = biological target: T1, human histidine-rich glycoprotein …; assay: sandwich ELISA, HRG captured by solid phase 65-3A
Method: as §1, §2

[7] = biological target: T1, human histidine-rich glycoprotein …; assay: sandwich ELISA, HRG captured by solid phase 67-8A-5F
Method: as §1, §2

[8] = biological target: T1, human histidine-rich glycoprotein …; assay: sandwich ELISA, HRG captured by solid phase 6-12A-10B-9G
Method: as §1, §2

[9] = biological target: T1, human histidine-rich glycoprotein …; assay: sandwich ELISA, HRG captured by solid phase 88-2E
Method: as §1, §2

[10] = biological target: T1, human histidine-rich glycoprotein …; assay: sandwich ELISA, HRG captured by solid phase 81-2C
Method: as §1, §2

[11] = biological target: T1, human histidine-rich glycoprotein …; assay: sandwich ELISA, HRG captured by solid phase 14-6F
Method: as §1, §2

[12] = biological target: T1, human histidine-rich glycoprotein …; assay: sandwich ELISA, HRG captured by solid phase 35-3G-10C
Method: as §1, §2

[13] = biological target: T1, human histidine-rich glycoprotein …; assay: sandwich ELISA, HRG captured by solid phase 3-4E
Method: as §1, §2

[14] = biological target: T1, human histidine-rich glycoprotein …; assay: sandwich ELISA, HRG captured by solid phase 32-4C
Method: as §1, §2

[15] = biological target: T1, human histidine-rich glycoprotein …; assay: sandwich ELISA, HRG captured by solid phase 9-1F
Method: as §1, §2

[16] = biological target: T1, human histidine-rich glycoprotein …; assay: sandwich ELISA, HRG captured by solid phase 69-1A
Method: as §1, §2

[17] = biological target: T1, human histidine-rich glycoprotein …; assay: sandwich ELISA, HRG captured by solid phase 50-6C-2A
Method: as §1, §2

[18] = biological target: T1, human histidine-rich glycoprotein …; assay: sandwich ELISA, HRG captured by solid phase 19-1C
Method: as §1, §2

absorbance at 450 nm [1]: < 1 OD
absorbance at 450 nm [2]: < 1 OD
absorbance at 450 nm (OD450) [3]: 1 to 2 od
absorbance at 450 nm (OD450) [4]: 1 to 2 od
absorbance at 450 nm [5]: < 1 OD
absorbance at 450 nm [6]: < 1 OD
absorbance at 450 nm [7]: < 1 OD
absorbance at 450 nm (OD450) [8]: 2 to 3 od
absorbance at 450 nm [9]: < 1 OD
absorbance at 450 nm [10]: < 1 OD
absorbance at 450 nm (OD450) [11]: 1 to 2 od
absorbance at 450 nm [12]: < 1 OD
absorbance at 450 nm (OD450) [13]: ≥ 3 od
absorbance at 450 nm [14]: < 1 OD
absorbance at 450 nm [15]: < 1 OD
absorbance at 450 nm [16]: < 1 OD
absorbance at 450 nm [17]: < 1 OD
absorbance at 450 nm [18]: < 1 OD
B1: anti-HRG monoclonal antibody 69-1A (antibody, V domains shown)
VH: EVKLEESGGGLVQPGGSMKLSCAASGFTFSDAWMDWVRQSPEKGLEWVAEIRSKANNHGTYYAESVKGRFTISRDDSKSSVYLRMNSLSAEDTGIYYCTRPFAYWGQGTLVTVSA
VL: DVVVTQTPLSLPVSLGDQASISCRSSQSLVHIDGNTYFHWYVQKPGQSPKLLIYKVSNRFSGVPDRFSGSGSGTDFTLKISRVEAEDLGVYFCSQSTHVPLTFGAGTKLELK
notes: Mouse hybridoma monoclonal; also called clone No. 69-1A

absorbance at 450 nm [1]: < 1 OD
absorbance at 450 nm (OD450) [2]: 2 to 3 od
absorbance at 450 nm (OD450) [4]: 1 to 2 od
absorbance at 450 nm [5]: < 1 OD
absorbance at 450 nm (OD450) [6]: ≥ 3 od
absorbance at 450 nm (OD450) [7]: ≥ 3 od
absorbance at 450 nm (OD450) [8]: ≥ 3 od
absorbance at 450 nm [9]: < 1 OD
absorbance at 450 nm [10]: < 1 OD
absorbance at 450 nm [12]: < 1 OD
absorbance at 450 nm [13]: < 1 OD
absorbance at 450 nm [14]: < 1 OD
absorbance at 450 nm [16]: < 1 OD
absorbance at 450 nm (OD450) [17]: ≥ 3 od
absorbance at 450 nm [18]: < 1 OD
B2: anti-HRG monoclonal antibody 75-2D (antibody, V domains shown)
VH: QVQLQQSGAELMKPGASVKISCKATGYTFSSYWIEWVKQRPGHGLEWIGEILPGSGRTNYNEKFKGKATFTADTSSNTAYMQLSSLTSEDSAVYYCARYSYFYYFDYWGQGTTLTVSS
VL: DNVLTQSPAIMSASLGERVTMTCTASSSVSSSYLHWYQQKPGSSPKLWIYSTSNLASGVPARFSGSGSGTSYSLTISSMEAEDAATYYCHQYHRSPWTFGGGTKLEIK
notes: Mouse hybridoma monoclonal; also called clone No. 75-2D
